In patent US20240166760A1 (UNIVERSITY OF PITTSBURGH OF THE COMMONWEALTH SYSTEM OF …, published 2024):
Residue numbers refer to the chain shown, from its start.

Columns and labels:
[1] = target: T1, Human IgG1 Fc-fused CEACAM5 A3B3 (residues 501-682) (human, UniProt P06731 501-682); test: indirect ELISA, antigen coated on plate
T1 construct: Expressed in Freestyle HEK cells and N-glycosylated; also called CEACAM5 A3B3-Fc; A3B3-Fc; not shown: human immunoglobulin 1 Fc region (hIgG1 Fc)
T1 sequence: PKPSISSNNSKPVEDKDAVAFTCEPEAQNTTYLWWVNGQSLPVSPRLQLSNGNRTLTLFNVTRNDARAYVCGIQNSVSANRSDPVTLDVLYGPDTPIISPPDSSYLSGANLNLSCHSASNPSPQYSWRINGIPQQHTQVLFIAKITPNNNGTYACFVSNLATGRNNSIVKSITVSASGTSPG
Experimental: (§1) Binding and specificity of scFv, Fab, or IgG to CEACAM related proteins were analyzed through indirect ELISA. Briefly, Fc-fused CEACAM5 polypeptides, CEACAM6 polypeptides, extra-cellular domain of CEACAM5 (R&D systems, 4128-CM), CEACAM6 (R&D systems, 3934-CM), or cynomolgus CEACAM5 (Sino biological, 90891-C08H) was coated on a 96 well plate (Corning, 3690) at 200 ng/well (50 μL volume) in PBS for 2 hours at room temperature. Blocking was carried out with 3% BSA in PBS for overnight at 4° C. Next day, various concentration of scFv, Fab, or IgG was treated to antigen coated plates and incubated for 1 hour at room temperature. After washing three times, anti-FLAG mouse antibody (M2 clone)-HRP conjugated (Sigma, A8592, 1:3000 dilution) or anti-human kappa goat antibody-HRP conjugated (Invitrogen, A18853, 1:3000 dilution) was treated for binding detection. Same volume of TMB (Thermo, PI34028) was added as a substrate, and then enzymatic reaction was stopped by adding of 2N sulfonic acid. The monomeric Fc fused-CD16a (Fc γRIIIa), CD64 (Fc γRIa) and CD32 (Fc γRIIa) were obtained from Prof. Wei Li (University of Pittsburgh, PA) and used for Fc gamma receptor (FcγR) binding test.

[2] = target: T2, Human IgG1 Fc-fused CEACAM5 A2B2 (residues 323-500) (human, UniProt P06731 323-500); test: indirect ELISA / BIAcore
T2 construct: also called CEACAM5 A2B2-Fc; A2B2 domains of CEACAM5; not shown: human immunoglobulin 1 Fc region (hIgG1 Fc)
T2 chain: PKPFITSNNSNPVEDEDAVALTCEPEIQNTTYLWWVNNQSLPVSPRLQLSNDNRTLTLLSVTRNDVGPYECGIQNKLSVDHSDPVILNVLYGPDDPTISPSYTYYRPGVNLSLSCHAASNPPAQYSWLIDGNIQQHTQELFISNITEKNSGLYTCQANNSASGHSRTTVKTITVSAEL

[3] = target: T3, Human IgG1 Fc-fused CEACAM5 A1B1 (residues 145-322) (human, UniProt P06731 145-322); test: indirect ELISA / BIAcore
T3 construct: also called CEACAM5 A1B1-Fc; A1B1 domains of CEACAM5; not shown: human immunoglobulin 1 Fc region (hIgG1 Fc)
T3 sequence: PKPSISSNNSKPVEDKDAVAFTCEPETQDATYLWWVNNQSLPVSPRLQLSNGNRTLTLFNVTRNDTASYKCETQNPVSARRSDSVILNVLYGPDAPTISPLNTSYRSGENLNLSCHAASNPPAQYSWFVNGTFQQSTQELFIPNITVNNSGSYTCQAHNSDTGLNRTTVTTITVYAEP

[4] = target: T4, human CEACAM6 on Freestyle 293F cells (human, UniProt P40199 35-320); test: flow cytometry on transfected HEK293F cells
T4 construct: whole, on cells; Gene carries a FLAG-tag at the C-terminal; Transiently expressed; also called CD66c
T4 sequence (looked up): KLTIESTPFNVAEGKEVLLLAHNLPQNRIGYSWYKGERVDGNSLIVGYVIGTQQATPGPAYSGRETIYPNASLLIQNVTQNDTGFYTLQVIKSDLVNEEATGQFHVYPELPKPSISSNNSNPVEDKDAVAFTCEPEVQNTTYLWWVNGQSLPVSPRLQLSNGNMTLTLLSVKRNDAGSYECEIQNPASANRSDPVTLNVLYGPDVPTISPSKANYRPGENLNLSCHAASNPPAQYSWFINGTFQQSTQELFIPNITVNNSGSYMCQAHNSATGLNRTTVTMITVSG
Experimental: (§2) To determine the cell surface expression levels of CEACAM5 or CEACAM family proteins, the cells were stained with PE-conjugated anti-CEACAM5 IgG1 (Miltenyi Biotec, 130-114-217) or PE-conjugated anti-FLAG mouse antibody (Miltenyi Biotec, 130-101-576). To confirm cell surface binding of selected antibodies, cells were treated with a hIgG1 having the CDRs of Clone #1, a hIgG1 having the CDRs of Clone #2, or the Clone #1 Fab for 1 hour at 4° C. and then stained with Alexa647-conjugated goat anti-human IgG (Invitrogen, A21445) or FITC conjugated-goat anti-human kappa light chain (Invitrogen, A18854) for 0.5 hours at 4° C. For the internalization assays, cells (1×10⁵ cells/well in 96-well plate) were treated with Alexa488-labeled antibodies for durations between 0 and 30 hours. After incubation of antibodies, cells were washed with cold PBS, and then the remained cell surface binding antibodies were analyzed using Alexa488 fluorescence. For CAR expression on anti-CEACAM5 CAR-T cells, CD4⁺ T or CD8⁺ T cells were gated using APC-conjugated anti-human CD4 antibody (ebioscience, 17-0049-42) and eFluor450-conjugated anti-human CD8 antibody (ebioscience, 48-0088-42), and CAR expression was examined using FITC-labeled recombinant Protein L (Acrobiosystems, RPL-PF141).

[5] = target: T5, human CEACAM7 on Freestyle 293F cells (human, UniProt Q14002 36-242); test: flow cytometry on transfected HEK293F cells
T5 construct: whole, on cells; Gene carries a FLAG-tag at the C-terminal; Transiently expressed
T5 sequence (looked up): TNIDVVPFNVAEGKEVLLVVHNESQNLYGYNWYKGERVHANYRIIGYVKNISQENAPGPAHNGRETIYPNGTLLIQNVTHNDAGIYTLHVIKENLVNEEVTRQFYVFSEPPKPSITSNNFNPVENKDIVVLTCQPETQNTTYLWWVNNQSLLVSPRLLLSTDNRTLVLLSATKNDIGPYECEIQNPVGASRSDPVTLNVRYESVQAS
Experimental: as §2

[6] = target: T6, human CEACAM18 on Freestyle 293F cells (human, UniProt A8MTB9 31-384); test: flow cytometry on transfected HEK293F cells
T6 construct: whole, on cells; Gene carries a FLAG-tag at the C-terminal; Transiently expressed
T6 sequence (looked up): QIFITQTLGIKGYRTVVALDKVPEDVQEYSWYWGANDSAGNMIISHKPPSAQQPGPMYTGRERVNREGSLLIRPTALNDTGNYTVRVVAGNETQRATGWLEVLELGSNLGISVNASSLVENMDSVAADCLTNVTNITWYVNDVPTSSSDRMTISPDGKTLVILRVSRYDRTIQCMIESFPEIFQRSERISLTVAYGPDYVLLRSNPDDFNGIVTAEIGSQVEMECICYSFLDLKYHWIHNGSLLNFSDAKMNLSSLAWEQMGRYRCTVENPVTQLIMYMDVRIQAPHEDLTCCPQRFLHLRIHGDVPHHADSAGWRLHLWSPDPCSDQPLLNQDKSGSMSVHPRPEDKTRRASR
Experimental: as §2

[7] = target: T7, human CEACAM20 on Freestyle 293F cells (human, UniProt Q6UY09 31-596); test: flow cytometry on transfected HEK293F cells
T7 construct: whole, on cells; Gene carries a FLAG-tag at the C-terminal; Transiently expressed
Experimental: as §2

[8] = target: T8, human CEACAM21 on Freestyle 293F cells (human, UniProt Q3KPI0 35-293); test: flow cytometry on transfected HEK293F cells
T8 construct: whole, on cells; Gene carries a FLAG-tag at the C-terminal; Transiently expressed
Experimental: as §2

[9] = target: T9, human CEACAM16 on Freestyle 293F cells (human, UniProt Q2WEN9 21-425); test: flow cytometry on transfected HEK293F cells
T9 construct: whole, on cells; Gene carries a FLAG-tag at the C-terminal; Transiently expressed
T9 sequence (looked up): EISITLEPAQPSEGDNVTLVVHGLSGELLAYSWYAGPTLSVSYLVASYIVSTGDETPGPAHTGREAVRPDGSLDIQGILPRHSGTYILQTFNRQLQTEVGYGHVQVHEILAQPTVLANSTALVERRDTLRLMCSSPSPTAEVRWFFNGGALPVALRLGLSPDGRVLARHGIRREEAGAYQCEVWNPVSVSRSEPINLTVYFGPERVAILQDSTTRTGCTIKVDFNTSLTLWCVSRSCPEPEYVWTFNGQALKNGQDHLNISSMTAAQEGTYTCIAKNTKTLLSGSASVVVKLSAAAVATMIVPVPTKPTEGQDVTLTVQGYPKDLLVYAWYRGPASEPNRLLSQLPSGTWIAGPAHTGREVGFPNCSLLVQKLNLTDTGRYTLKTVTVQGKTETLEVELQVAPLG
Experimental: as §2

[10] = target: T10, human CEACAM8 on Freestyle 293F cells (human, UniProt P31997 35-320); test: flow cytometry on transfected HEK293F cells
T10 construct: whole, on cells; Gene carries a FLAG-tag at the C-terminal; Transiently expressed
T10 sequence (looked up): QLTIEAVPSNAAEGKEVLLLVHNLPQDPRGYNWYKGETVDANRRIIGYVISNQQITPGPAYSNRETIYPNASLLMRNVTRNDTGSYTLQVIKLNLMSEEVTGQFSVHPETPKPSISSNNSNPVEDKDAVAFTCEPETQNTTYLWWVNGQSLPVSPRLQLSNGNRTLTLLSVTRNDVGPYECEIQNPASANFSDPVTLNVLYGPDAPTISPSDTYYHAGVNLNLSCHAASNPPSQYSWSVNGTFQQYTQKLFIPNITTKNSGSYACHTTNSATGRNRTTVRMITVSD
Experimental: as §2

[11] = target: T11, human CEACAM1 on Freestyle 293F cells (human, UniProt P13688 35-526); test: flow cytometry on transfected HEK293F cells
T11 construct: whole, on cells; Gene carries a FLAG-tag at the C-terminal; Transiently expressed
T11 sequence (looked up): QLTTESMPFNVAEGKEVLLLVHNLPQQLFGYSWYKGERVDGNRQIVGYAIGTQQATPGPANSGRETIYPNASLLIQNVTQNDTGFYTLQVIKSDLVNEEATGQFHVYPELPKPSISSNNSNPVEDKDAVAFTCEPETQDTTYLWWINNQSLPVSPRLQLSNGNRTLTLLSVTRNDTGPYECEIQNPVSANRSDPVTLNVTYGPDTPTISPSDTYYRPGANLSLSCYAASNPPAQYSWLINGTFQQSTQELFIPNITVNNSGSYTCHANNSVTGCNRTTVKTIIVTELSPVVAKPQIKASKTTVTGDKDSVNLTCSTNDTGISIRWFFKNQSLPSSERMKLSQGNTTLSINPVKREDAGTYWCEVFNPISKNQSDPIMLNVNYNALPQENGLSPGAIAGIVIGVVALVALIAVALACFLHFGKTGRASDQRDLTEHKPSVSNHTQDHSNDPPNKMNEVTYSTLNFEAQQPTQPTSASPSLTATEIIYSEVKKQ
Experimental: as §2

[12] = target: T12, Fc-fused CEACAM5 A3B3 domain N580Q mutant (human, UniProt P06731 501-682); test: indirect ELISA
T12 construct: N-glycosylation site mutant of A3B3-Fc; not shown: human IgG1 Fc carrier and its junction to A3B3
T12 chain: T1 sequence with N80Q
Experimental: as §1, with “test. […]” for “test.”

[13] = target: T1, Human IgG1 Fc-fused CEACAM5 A3B3 …; test: SPR (BIAcore)
[14] = target: T13, Human IgG1 Fc-fused CEACAM5 A3B3 (residues 501-682) (UniProt P06731 501-682); test: SPR (Biacore)
T13 chain: T1 sequence

T8 sequence (Q3KPI0 35-293): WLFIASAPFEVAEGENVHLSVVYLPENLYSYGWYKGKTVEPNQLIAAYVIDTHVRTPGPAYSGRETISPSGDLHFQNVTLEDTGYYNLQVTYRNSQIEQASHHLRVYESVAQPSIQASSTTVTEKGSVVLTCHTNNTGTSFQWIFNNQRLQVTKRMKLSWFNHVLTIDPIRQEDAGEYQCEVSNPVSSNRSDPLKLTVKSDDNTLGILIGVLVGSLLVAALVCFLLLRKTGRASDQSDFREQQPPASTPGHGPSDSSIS
T7 sequence (Q6UY09 31-596): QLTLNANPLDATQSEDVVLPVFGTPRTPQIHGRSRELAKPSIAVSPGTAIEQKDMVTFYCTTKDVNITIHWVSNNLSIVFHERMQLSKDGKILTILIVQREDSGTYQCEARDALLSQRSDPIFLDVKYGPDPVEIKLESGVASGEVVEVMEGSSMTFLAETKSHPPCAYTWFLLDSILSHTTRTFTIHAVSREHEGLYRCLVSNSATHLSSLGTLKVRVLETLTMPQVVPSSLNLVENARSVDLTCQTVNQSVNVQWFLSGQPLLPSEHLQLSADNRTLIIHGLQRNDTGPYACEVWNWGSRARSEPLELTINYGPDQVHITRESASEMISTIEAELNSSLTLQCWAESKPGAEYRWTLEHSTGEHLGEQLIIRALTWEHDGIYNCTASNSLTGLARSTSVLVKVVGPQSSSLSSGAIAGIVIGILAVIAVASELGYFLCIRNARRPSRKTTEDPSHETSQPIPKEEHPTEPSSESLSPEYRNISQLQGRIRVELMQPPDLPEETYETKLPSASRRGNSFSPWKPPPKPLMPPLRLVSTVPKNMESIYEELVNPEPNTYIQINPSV

B1: Clone #1 Fab (1G9 Fab) (Fab, V domains shown)
VH: QVQLVESGGGLVKPGGSLRLSCAASGFTFSDYYMSWIRQAPGKGLEWVSYISSSGSTIYYADSVKGRFTISRDNAKNSLYLQMNSLRAEDTAVYYCARIGRYSYGLRSYYYYGMDVWGQGTTVTVSS
VL: DIQMTQSPSSLSASVGDRVTITCRASQSISSYLNWYQQKPGKAPKLLIYAASSLQSGVPSRFSGSGSGTDFTLTISSLQPEDFGVYYCMQALQTPVTFGQGTRLEIKR
notes: Human Fab from a phage library (IGHV3-11 / IGKV1-39 frameworks), made in E. coli and purified on Ni-NTA
B1 was tested, and the EC50 [1] was about 6 nM, the binding result [2] was “no binding” and the binding result [3] was “no binding”. B1: no binding [4]; no binding [5]; no binding [6]. B1: no binding [7]; no binding [8]; no binding [9]. B1: no binding [10]; no binding [11]; binds [12]. The Kd [13] was 3 nM and the Kd [14] was 1.91 nM.
